Reference: the supplement of paper PMC12783771
± gives the standard deviation of the averaged measurements.

B1: library; a variant is named by its letters at X, in order (parent)
chain: MNIQIGELAKRTACPVVTIRFYEQEGLLPPPGRSRGNFRLYGEEHVERLQFIRHCRSLDMPLSDVRTLLSYRKRPDQDCGEVXMLLDEHIRQVESRIGALLELKHHLVELREACSGARPAQSCGILQXLSXCVCXTRGTTAHXSD

Tests used:
[1] = variants of: B1; experiment: sfGFP reporter fluorescence (15 h) (µM FITC); higher = higher leak; settings: library round: Round 2; ligand: none
Procedure: (§1)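 Cell-free biosensing: 1 µL Echo-assembled CFE reactions with linear PbrR variant templates (5 nM) and pPbrR-sfGFP reporter, with 1 µM Pb, 30 µM Zn or no ligand; endpoint sfGFP fluorescence after 15 h at 30 °C calibrated as µM FITC. Round 2 ML-predicted PbrR mutants; up to 3 biological replicates.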

[2] = variants of: B1; experiment: sfGFP reporter fluorescence (15 h) (µM FITC); higher = stronger transcriptional activation; settings: library round: Round 2
Procedure: as §1

Variant	sfGFP reporter fluorescence [1]	sfGFP reporter fluorescence ([2]; ligand: 1 µM Pb)	sfGFP reporter fluorescence ([2]; ligand: 30 µM Zn)
TGDAA E112I	0.04637 ± 0.00034	0.0525 ± 0.0024	0.108 ± 0.0066
NGDDP M60F P61N D64K K104V	0.395 ± 0.16	0.744 ± 0.16	2.04 ± 0.33
NGDPP M84A R111A	0.0671 ± 0.0045	0.0854 ± 0.013	0.919 ± 0.12
NHEDW	0.0563 ± 0.0014	0.119 ± 0.014	0.842 ± 0.068
NGSPA	0.0677 ± 0.013	0.114 ± 0.019	0.999 ± 0.13
NGSPL	0.077 ± 0.0065	0.141 ± 0.014	1.2 ± 0.12
MGSDA	0.0442 ± 0.0017	0.0841 ± 0.0012	0.0513 ± 0.00078
TGHAP	0.0614 ± 0.0048	0.0828 ± 0.0035	0.394 ± 0.061
NGADY L107C	1.36 ± 0.23	2.4 ± 0.18	3.25 ± 0.18
TGCDT L129I	0.0433 ± 0.0032	0.0464	0.0525 ± 0.0028
NGCDP M60L P61N D64K K104V	0.179 ± 0.016	0.384 ± 0.049	1.39 ± 0.088
TGDDP L107I E112A	0.0475 ± 0.0007	0.131 ± 0.0047	0.511 ± 0.039
NGTYP V133P	0.0724 ± 0.0067	0.148 ± 0.0095	0.951 ± 0.42
NGDDP D87E S95A K104V R111A	0.0648 ± 0.0053	0.0918 ± 0.0068	0.74 ± 0.092
TGDDP K104R E112F	0.0494 ± 0.00089	0.0553 ± 0.0034	0.111 ± 0.0062
NEDAT	0.0492 ± 0.001	0.0597 ± 0.0011	0.594 ± 0.053
NGDDP M60L D64S L107C	3.21 ± 0.37	2.96 ± 0.13	3.58 ± 0.77
NGDAP P61D D64K L107C	2.53 ± 0.22	1.89 ± 0.26	2.38 ± 0.23
TGDDP E109D E112K	0.0468 ± 0.0013	0.0781 ± 0.0022	0.418 ± 0.034
TGDDL T139A	0.0436 ± 0.001	0.0619 ± 0.0082	0.241 ± 0.015
NGCDP P61N H106A	0.0622 ± 0.0038	0.166 ± 0.0088	0.457 ± 0.079
NGDAY L110V	0.0649 ± 0.005	0.0584 ± 0.0031	0.445 ± 0.032

Variant	sfGFP reporter fluorescence [1]	sfGFP reporter fluorescence ([2]; ligand: 1 µM Pb)	sfGFP reporter fluorescence ([2]; ligand: 30 µM Zn)
NGDDP	0.0488 ± 0.0061	0.0602 ± 0.0046	0.684 ± 0.074
TGDDP V82I L85K	0.0407 ± 0.0021	0.0368 ± 0.00078	0.0458 ± 0.0007
NGCDA L107C	0.757 ± 0.089	1.68 ± 0.17	3.37 ± 0.31
TGSDP H142A	0.0642 ± 0.0043	0.081 ± 0.0053	0.451 ± 0.086
SADAP	0.0791 ± 0.013	0.19 ± 0.019	2.33 ± 0.44
NGDDP P61N D64T E112V	0.117 ± 0.013	0.294 ± 0.026	2.13 ± 0.17
SGDDP I90L D145A	0.0442 ± 0.0022	0.046 ± 0.001	0.122 ± 0.0052
NGDRP D64T E88A	0.369 ± 0.048	0.499 ± 0.14	3.13 ± 0.29
NIADP L107C	2.06 ± 0.19	3.57 ± 0.56	3.67 ± 0.32
NGCDP D64K E112H	0.108 ± 0.012	0.402 ± 0.043	1.44 ± 0.16
NGAAS	0.0633 ± 0.001	0.107 ± 0.011	1.08 ± 0.1
TGHPY	0.0455 ± 0.0011	0.116 ± 0.0064	0.214 ± 0.017
TGDDT R111I	0.0459 ± 0.00085	0.0556 ± 0.0012	0.201 ± 0.0085
TGDDT R111V	0.048 ± 0.00067	0.0656 ± 0.0064	0.282 ± 0.033
NGADW L126I	0.0633 ± 0.0051	0.0592 ± 0.0043	0.317 ± 0.024
NGDDP P61N L107C C134I	2.22 ± 0.18	2.54 ± 0.38	3.82 ± 0.36
NGCDP V108I S115G	0.0507 ± 0.0021	0.0573 ± 0.0016	0.115 ± 0.0092
NADPP V108L L129M	0.0617 ± 0.0065	0.0681 ± 0.0059	0.734 ± 0.067
NGDDP M60L D64K E81A	1.03 ± 0.075	2.19 ± 0.059	3.74 ± 0.22
MGAAP	0.0477 ± 0.0018	0.0933 ± 0.0042	0.0535 ± 0.0035
NICDP I125L	0.0468 ± 0.0013	0.0446 ± 0.0014	0.0531 ± 0.0013
NGDAP L129I H142A	0.0458 ± 0.0024	0.0491 ± 0.0012	0.302 ± 0.012
